From patent US20240325557A1 (INNATE PHARMA, published 2024) come the findings set out here.

The target in assay [1] is T1, huNectin4-C1C2-V5 (C1C2 construct, lacking the Ig-like V domain) (human, UniProt Q96NY8 148-510).
T1 construct: Expressed on CHO cells; also called Hu-Nectin4 IgC1C2-V5; Nectin4-C1C2-V5 sorted cells
T1 sequence: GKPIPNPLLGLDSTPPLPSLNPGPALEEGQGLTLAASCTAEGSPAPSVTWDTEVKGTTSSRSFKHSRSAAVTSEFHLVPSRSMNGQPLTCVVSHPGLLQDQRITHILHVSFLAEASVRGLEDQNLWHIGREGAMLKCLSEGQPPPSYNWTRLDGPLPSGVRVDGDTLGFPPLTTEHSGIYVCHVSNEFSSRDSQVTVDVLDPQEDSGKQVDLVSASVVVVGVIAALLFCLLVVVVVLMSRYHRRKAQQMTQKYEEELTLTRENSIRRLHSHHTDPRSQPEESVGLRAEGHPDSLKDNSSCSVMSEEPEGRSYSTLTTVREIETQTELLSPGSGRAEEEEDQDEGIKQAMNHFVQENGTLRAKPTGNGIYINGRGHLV
The experiment in a line: flow cytometry on Nectin4-C1C2-V5 sorted cells. On the technique in general: A flow cytometer gives signals particle by particle.

The next assay concerns the target T2, human PVR on CHO cells (human, UniProt P15151 28-417).
T2 construct: also called PVR (Nectin-5)
T2 sequence: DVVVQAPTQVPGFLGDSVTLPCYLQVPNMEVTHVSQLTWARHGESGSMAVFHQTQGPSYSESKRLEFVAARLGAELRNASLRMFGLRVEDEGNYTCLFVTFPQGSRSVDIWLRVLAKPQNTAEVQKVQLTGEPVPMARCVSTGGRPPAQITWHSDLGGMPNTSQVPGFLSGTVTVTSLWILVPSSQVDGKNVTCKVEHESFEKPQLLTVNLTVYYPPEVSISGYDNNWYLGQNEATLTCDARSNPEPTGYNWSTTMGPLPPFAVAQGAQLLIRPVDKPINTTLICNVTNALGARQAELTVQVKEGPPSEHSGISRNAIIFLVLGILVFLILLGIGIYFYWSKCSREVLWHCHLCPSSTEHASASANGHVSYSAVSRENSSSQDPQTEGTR
The assay can be described thus: flow cytometry on CHO cells expressing human PVR. The protocol: Anti-Nectin-4 antibodies were tested by flow cytometry for binding to different CHO cell lines made to express respectively the human Nectin 1, Nectin 2, Nectin 3 and PVR proteins. The expression of each cell lines was controlled and validated with known respectively the anti-human Nectin1, anti-human Nectin2, anti-human Nectin3 and anti-human PVR antibodies. The mature amino acid sequence of the proteins expressed by the cells were as follows:
Nectin 1, Nectin 2, Nectin 3 and PVR proteins as in Example 12. […] Epitope mapping was carried out by assessing competition for binding to Nectin-4 by SPR as in Example 14.

B1: antibody 6A7 (antibody, human IgG1, V domains shown)
VH: QVQLKESGAELVKPGASVKLSCKASGYTFTSYWMHWVKQRPGHGLEWVGEIDPSDSYTNYNQKFKGKATLTIDKSSSTVYMQLSSLTSEDSAVYYCARSGNYDAMDYWGQGTSVTVSA
VL: DIVMTQAAFSSAVTLGTSASISCRSSKSLLHSNGITYLYWYLQKPGQSPHFLIYQMSNLASGVPDRFTSSGSGTDFTLRISRVEAEDVGVYYCAQNLELPWTFGGGTKLEIK
notes: also called CHG1-M-4N4-6A7
As for B1, the binding result in assay [1] was “binds”; with human PVR on CHO cells, “no binding”.
